Experimental data from publication PMC11696079 (Nature Communications, 2025).
Several values for one entry are separate records, joined by “and”; a condition that tells them apart may be missing. Equal values may be shown once.

Target: recombinant wild-type PKM2 (WT) (UniProt P14618 1-531)
Test: SPR

Chain of recombinant wild-type PKM2 (WT) (P14618 whole entry): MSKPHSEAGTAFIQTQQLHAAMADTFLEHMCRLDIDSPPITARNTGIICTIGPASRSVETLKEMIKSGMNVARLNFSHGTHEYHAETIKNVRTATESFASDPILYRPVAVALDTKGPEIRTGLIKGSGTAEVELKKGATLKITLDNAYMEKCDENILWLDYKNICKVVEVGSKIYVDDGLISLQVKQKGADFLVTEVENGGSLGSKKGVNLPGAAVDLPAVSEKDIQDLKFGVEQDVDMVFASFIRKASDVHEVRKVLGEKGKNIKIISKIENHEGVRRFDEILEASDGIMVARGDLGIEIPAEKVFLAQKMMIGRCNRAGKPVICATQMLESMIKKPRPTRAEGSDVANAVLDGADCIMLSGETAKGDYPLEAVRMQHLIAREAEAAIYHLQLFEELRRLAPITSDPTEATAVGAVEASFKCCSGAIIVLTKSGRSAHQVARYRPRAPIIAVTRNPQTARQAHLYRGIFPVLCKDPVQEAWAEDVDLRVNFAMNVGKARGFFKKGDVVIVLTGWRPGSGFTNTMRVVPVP

B1: recombinant wild-type ALDOA (WT) (enzyme)
chain: PYQYPALTPEQKKELSDIAHRIVAPGKGILAADESTGSIAKRLQSIGTENTEENRRFYRQLLLTADDRVNPCIGGVILFHETLYQKADDGRPFPQVIKSKGGVVGIKVDKGVVPLAGTNGETTTQGLDGLSERCAQYKKDGADFAKWRCVLKIGEHTPSALAIMENANVLARYASICQQNGIVPIVEPEILPDGDHDLKRCQYVTEKVLAAVYKALSDHHIYLEGTLLKPNMVTPGHACTQKFSHEEIAMATVTALRRTVPPAVTGITFLSGGQSEEEASINLNAINKCPLLKPWALTFSYGRALQASALKAWGGKKENLKAAQEEYVKRALANSLACQGKYTPSGQAGAAASESLFVSNHAY
B1 was tested, and the Kd was 382 nM and 322 nM.
